Experiment [1] addresses DLL4 extracellular domain (R&D systems, catalog #1506-D4/CF) (UniProt Q9NR61). The experiment can be described thus: cell-based or functional assay.
Experiment [2] concerns the target human Dll1 (human) (UniProt O00548). The experiment can be described thus: FACS, 1 µg/ml, 293T cells with human Dll1.
The target is the same in experiment [3]. Put plainly: FACS, 5 µg/ml, 293T cells with human Dll1. (In flow cytometry, cells or beads pass a laser one at a time.)
Experiment [4] has the same target. Put plainly: FACS, 0.2 µg/ml, 293T cells with human Dll1.
Experiment [5] shares this target. Put plainly: FACS, 1 µg/ml, 293T cells with human Dll1 vs mock.
Experiment [6] shares this target. The experiment can be described thus: FACS, 5 µg/ml, 293T cells with human Dll1 vs mock.
The target is the same in experiment [7]. Put plainly: FACS, 0.2 µg/ml, 293T cells with human Dll1 vs mock.
In experiment [8] the target is human Jagged1 (human) (UniProt P78504). Put plainly: FACS, 1 µg/ml, 293T cells with human Jagged1.
human Jagged1 (human), sequence (P78504 34-1218): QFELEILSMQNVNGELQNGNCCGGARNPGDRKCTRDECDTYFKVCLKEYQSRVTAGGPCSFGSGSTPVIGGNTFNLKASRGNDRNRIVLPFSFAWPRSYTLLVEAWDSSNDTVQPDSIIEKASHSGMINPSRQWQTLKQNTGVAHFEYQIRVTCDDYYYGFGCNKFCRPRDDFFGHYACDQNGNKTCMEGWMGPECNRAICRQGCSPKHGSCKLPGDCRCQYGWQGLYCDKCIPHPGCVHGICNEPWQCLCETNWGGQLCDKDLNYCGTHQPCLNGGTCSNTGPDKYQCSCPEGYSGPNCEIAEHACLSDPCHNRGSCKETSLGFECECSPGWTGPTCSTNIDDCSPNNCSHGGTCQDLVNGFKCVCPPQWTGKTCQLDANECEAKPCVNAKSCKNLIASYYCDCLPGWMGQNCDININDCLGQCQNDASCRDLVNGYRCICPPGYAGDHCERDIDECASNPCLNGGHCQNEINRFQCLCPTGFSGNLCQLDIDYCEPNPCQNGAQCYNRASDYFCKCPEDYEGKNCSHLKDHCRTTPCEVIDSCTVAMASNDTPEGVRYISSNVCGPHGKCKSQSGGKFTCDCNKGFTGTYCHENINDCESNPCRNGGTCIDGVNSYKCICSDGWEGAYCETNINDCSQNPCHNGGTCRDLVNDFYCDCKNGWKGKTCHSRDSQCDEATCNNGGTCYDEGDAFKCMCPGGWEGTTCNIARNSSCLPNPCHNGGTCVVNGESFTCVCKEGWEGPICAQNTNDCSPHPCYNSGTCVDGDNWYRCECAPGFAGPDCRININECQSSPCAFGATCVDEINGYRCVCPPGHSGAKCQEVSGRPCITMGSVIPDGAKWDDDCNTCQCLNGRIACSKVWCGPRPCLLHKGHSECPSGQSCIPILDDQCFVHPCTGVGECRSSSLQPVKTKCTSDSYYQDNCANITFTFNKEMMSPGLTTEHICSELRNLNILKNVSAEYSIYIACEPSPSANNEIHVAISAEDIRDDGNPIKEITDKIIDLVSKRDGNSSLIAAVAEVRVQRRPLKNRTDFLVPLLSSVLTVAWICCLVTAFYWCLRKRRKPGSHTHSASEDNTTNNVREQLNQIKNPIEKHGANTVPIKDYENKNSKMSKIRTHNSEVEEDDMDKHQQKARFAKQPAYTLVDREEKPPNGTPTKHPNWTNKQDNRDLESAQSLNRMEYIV
Experiment [9] has the same target. The experiment can be described thus: FACS, 5 µg/ml, 293T cells with human Jagged1.
For experiment [10] the target is unchanged. The experiment can be described thus: FACS, 0.2 µg/ml, 293T cells with human Jagged1.
Experiment [11] has the same target. The experiment can be described thus: FACS, 1 µg/ml, 293T cells with human Jagged1 vs mock.
Experiment [12] has the same target. The experiment can be described thus: FACS, 5 µg/ml, 293T cells with human Jagged1 vs mock.
Experiment [13] has the same target. Put plainly: FACS, 0.2 µg/ml, 293T cells with human Jagged1 vs mock.

human Dll1 (human), sequence (O00548 18-723): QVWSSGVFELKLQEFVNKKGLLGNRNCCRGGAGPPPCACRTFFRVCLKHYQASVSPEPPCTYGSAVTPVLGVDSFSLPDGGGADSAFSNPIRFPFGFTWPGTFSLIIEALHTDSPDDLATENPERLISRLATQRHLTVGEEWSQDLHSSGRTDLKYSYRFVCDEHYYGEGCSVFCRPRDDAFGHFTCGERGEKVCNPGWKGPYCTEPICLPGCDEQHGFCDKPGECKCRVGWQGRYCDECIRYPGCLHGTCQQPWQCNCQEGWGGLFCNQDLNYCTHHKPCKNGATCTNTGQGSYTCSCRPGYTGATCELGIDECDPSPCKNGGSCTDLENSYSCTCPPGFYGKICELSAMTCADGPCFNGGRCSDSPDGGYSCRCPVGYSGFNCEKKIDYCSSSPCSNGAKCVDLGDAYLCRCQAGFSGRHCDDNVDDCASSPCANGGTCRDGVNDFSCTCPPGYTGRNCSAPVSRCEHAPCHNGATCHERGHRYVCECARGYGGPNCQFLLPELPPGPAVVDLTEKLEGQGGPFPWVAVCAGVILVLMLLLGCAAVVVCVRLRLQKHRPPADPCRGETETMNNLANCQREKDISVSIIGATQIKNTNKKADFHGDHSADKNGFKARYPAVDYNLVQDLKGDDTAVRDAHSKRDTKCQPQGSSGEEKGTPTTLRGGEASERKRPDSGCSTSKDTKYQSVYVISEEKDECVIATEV
DLL4 extracellular domain (R&D systems, catalog #1506-D4/CF), sequence (Q9NR61 27-529 limits assumed): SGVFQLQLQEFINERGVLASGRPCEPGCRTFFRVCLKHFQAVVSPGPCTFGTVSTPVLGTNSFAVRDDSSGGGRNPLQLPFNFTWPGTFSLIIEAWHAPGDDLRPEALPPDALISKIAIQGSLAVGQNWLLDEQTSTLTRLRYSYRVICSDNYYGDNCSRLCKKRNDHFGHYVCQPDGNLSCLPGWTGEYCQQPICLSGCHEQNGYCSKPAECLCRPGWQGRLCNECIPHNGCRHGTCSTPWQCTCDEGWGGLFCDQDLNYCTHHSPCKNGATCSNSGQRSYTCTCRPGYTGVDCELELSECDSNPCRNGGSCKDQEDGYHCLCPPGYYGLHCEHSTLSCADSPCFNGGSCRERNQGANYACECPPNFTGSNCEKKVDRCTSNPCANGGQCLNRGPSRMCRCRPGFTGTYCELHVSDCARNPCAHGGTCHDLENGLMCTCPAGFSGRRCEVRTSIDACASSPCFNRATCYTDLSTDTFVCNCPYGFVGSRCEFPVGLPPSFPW

In experiment [1], Control IgG2 (antibody) displayed a % inhibition 1 µg/ml, AVERAGE (HUVEC proliferation on coated DLL4) of 9%; a % inhibition 1 µg/ml, N = 1 (HUVEC proliferation on coated DLL4) of 18%; a % inhibition 1 µg/ml, N = 2 (HUVEC proliferation on coated DLL4) of 0%; a % inhibition 10 µg/ml, AVERAGE (HUVEC proliferation on coated DLL4) of 10%. In [1], the % inhibition 10 µg/ml, N = 1 (HUVEC proliferation on coated DLL4) came out at 11% and the % inhibition 10 µg/ml, N = 2 (HUVEC proliferation on coated DLL4) stood at 9%.

Regarding “Goat anti-human Dll1 antibody (R&D systems cat #AF1818)”, the Dll1/293T X Geo mean in [2] amounted to 1240; in [3], 1840; in experiment [4], 565. The Dll1/mock ratio in [5] came to 6.33; in experiment [6] it was 7.68; in experiment [7], 6.94.

Turning to “Mouse anti-human Jagged 1 antibody (R&D systems, catalog #mAB1277)”, the Jagged1/293T X Geo mean was determined as 119 in [8], 196 in [9] and 50.7 in [10]. In addition, the Jagged1/mock ratio in [11] came to 3.94; in [12], 4.29; in [13] it was 3.38.

In experiment [1], Control IgG4 (antibody) gave a % inhibition 1 µg/ml, AVERAGE (HUVEC proliferation on coated DLL4) of 11%; a % inhibition 1 µg/ml, N = 1 (HUVEC proliferation on coated DLL4) of 14%; a % inhibition 1 µg/ml, N = 2 (HUVEC proliferation on coated DLL4) of 8%; a % inhibition 10 µg/ml, AVERAGE (HUVEC proliferation on coated DLL4) of 2%. Besides, in [1], the % inhibition 10 µg/ml, N = 1 (HUVEC proliferation on coated DLL4) turned out to be 6% and the % inhibition 10 µg/ml, N = 2 (HUVEC proliferation on coated DLL4) was -3%.

Source of the values: US20100196385A1.
